The record followed here is publication PMC3672285 (RNA Biology, 2013).

B1: His-tagged Rrp41 of S. solfataricus (natural protein, UniProt Q9UXC2 1-248, looked up)
chain: MREMLQVERPKLILDDGKRTDGRKPDELRSIKIELGVLKNADGSAIFEMGNTKAIAAVYGPKEMHPRHLSLPDRAVLRVRYHMTPFSTDERKNPAPSRREIELSKVIREALESAVLVELFPRTAIDVFTEILQADAGSRLVSLMAASLALADAGIPMRDLIAGVAVGKADGVIILDLNETEDMWGEADMPIAMMPSLNQVTLFQLNGSMTPDEFRQAFDLAVKGINIIYNLEREALKSKYVEFKEEGV
B2: His-tagged Csl4 of S. solfataricus (natural protein, UniProt Q980J9 1-189, looked up)
chain: MRTQGELTLPGEELAVIEEFMTGDGTYEQNGIVRAAVVGKIFYDMLNRKSNVLGFKKIIFQHLKKAKYVIGIVNSIKEDSALVSIVGIEERGLASPISAYLHISQISNKKINNVTDAIKIGDVIKAKLLSYTFPLALTIKMKDLGVIYARCSRCGYLLIKQDENNLKCQRCGNIEQRKIGSYMVKKGGN
B3: Strep-tagged Csl4 of S. solfataricus (natural protein, UniProt Q980J9 1-189, looked up)
chain: B2 chain
B4: His-tagged DnaG of S. solfataricus (natural protein, UniProt P95980 1-406, looked up)
chain: MSFQMKYDIRLRFEVEGIVEKTDVIGAIFGQTENLFGDEFDLRELQDKGRLGRIIVEVKTKGGKSEGEIIIPSNLDRIETALIAAMVESVDKVGPYNSKFELIEIEDIRAEKLKKIIERAKGILSSWSKEKSLDIKEVINEISSAVKVGEITEYGPERLPAGPDVDKDPNLIIVEGRADVINLLRYGYKNVIAVEGATSRIPETLINLSKMKKTVIAFLDGDHGGDLILKELLSNNVKIDFVARAPIGREVEELTGKEIAKALSNMMPLTQYLKKVQEAEQAIAKNVIAKEEKPIQSETTQQVVQITLPQNILEEIKKLPGTLEGVLYDNNWNLIEKVQVRDIIPKLEAYEDNKVAYIIFDGVITQRLLDLASQKNIKMIIGARIGGINKRPQNVDILTFTDIISS
B5: His-tagged Rrp4 of S. solfataricus (natural protein, UniProt Q9UXC4 1-249, looked up)
chain: MNMSQSQKIVLQPRSIVVPGELLAEGEFQIPWSPYILKINSKYYSTVVGLFDVKDTQFEVIPLEGSFYYPKINDIVIGLVEDVEIYGWVVDIKAPYKAYLPASNLLGRSINVGEDLRRYLDVGDYVIARIENFDRSIDPVLSVKGKDLGRVSNGIVIDIMPVKVPRVIGKNKSMYETLTSKSGCSIFVANNGRIWATCPSRFSEEILIEAIRKIENESHIKGLTDRIKQFIEEKLGERNASSGETKTNS

In assay [1] the target is T1, His-tagged Rrp42 of S. solfataricus (S. solfataricus, UniProt Q9UXC0 1-275).
T1 sequence (looked up): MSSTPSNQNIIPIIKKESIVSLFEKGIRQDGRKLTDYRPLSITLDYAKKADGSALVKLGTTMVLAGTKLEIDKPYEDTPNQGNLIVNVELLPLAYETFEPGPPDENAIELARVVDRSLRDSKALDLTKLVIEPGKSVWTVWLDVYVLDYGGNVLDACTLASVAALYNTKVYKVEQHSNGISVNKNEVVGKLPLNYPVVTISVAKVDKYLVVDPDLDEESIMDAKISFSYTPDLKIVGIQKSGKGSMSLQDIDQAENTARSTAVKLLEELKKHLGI
As to the kind of experiment: SEC. In general terms: Size exclusion chromatography separates by hydrodynamic size, large species first.

In assay [2] the target is T2, Rrp41-Rrp42 hexamer, His-tagged subunits (S. solfataricus, UniProt Q9UXC2 1-248; Q9UXC0 1-275).
T2 sequence (looked up) 1: B1 chain
T2 sequence (looked up) 2: T1 sequence (looked up)
As to the kind of experiment: co-IP.

For assay [3], the target named is B5. As to the kind of experiment: pull-down.
Assay [4] concerns the target T3, Strep-Csl4-exosome (Strep-Csl4, His6-Rrp41, His6-Rrp42) (S. solfataricus, UniProt Q9UXC2 1-248; Q9UXC0 1-275; Q980J9 1-189).
T3 sequence (looked up) 1: B1 chain
T3 sequence (looked up) 2: T1 sequence (looked up)
T3 sequence (looked up) 3: B2 chain
As to the kind of experiment: pull-down.

Regarding B1, the binding result in assay [1] is given as “binds”. As to B2, in assay [2], the binding result is “binds”. For the molecule B3, in assay [3], the binding result is on record as “binds”. As for B4, the binding result in assay [4] is given as “binds”. On to B5, for which, in assay [2], the binding result is reported as “binds”.
